# Experimental data from patent publication US20120172285A1 (Dana-Farber, published 2012).
# Bridges are numbered along the chain shown (N, C = ends). Where no end group is shown, it is not given here. [ ]: non-standard residue; d: D form. The star is where a group is joined. FITC = O=C1OC2(c3ccc(O)cc3Oc3cc(O)ccc32)c2ccc(NC(=S)*)cc21; S5 = C=CCCC[C@](C)(N)C(=O)O; Nle = CCCC[C@H](N)C(=O)O
# B1: BOK SAHB (peptide)
# peptide: {FITC}-RLAEVSAVLL[S5]LGD[S5]LE[Nle]IR
# modifications: staple 11-15
# B2: PUMA SAHB (peptide)
# peptide: {FITC}-QWAREIGAQLR[S5][Nle]AD[S5]LNAQY
# modifications: staple 12-16
# notes: domain: BH3
# B3: BID SAHB (peptide)
# peptide: {FITC}-DIIRNIARHLA[S5]VGD[S5][Nle]DRSIRR
# modifications: staple 12-16
# notes: domain: BH3
# B4: BAX SAHB (peptide)
# peptide: {FITC}-ASTKKLSESLK[S5]IGD[S5]LDSN
# modifications: staple 12-16
# notes: domain: BH3
# B5: BAK SAHB (peptide)
# peptide: {FITC}-QVGRQLA[S5]IGD[S5]INRRYD
# modifications: staple 8-12
# notes: also called FITC-BAK SAHB; BAK BH3 helix
# B6: BIM SAHBD with Ile65 to Phe and Glu68 to Lys (MCL-1-specificity tailored BIM SAHB) (peptide)
# peptide: {FITC}-IWI[S5]QEL[S5]RFGDKFNAYYAR
# modifications: staple 4-8
# B7: MCL-1 SAHBA (stapled MCL-1 BH3 helix, parental) (peptide)
# peptide: KALETLR[S5]VGD[S5]VQRNHETAF
# modifications: staple 8-12; also: N-terminal FITC or acetyl depending on assay
# notes: domain: BH3; also called FITC-MCL-1 SAHBA
# B8: MCL-1 SAHBA V220F (peptide, UniProt Q07820 208-228, looked up)
# peptide: {FITC}-KALETLR[S5]VGD[S5]FQRNHETAF
# modifications: staple 8-12
# notes: domain: BH3; also called V220F point mutation in MCL-1 SAHB
# Legend:
# [1] = molecular target: recombinant human MCL-1ΔNΔC (amino acids 172-320) (human) (UniProt Q07820); test: fluorescence polarization (FPA), FITC-NOXA SAHBB, dilution series of the protein [left graph]
# [2] = molecular target: recombinant human MCL-1ΔNΔC (amino acids 172-320) (human) (UniProt Q07820); test: fluorescence polarization (FPA), FITC-SAHB with recombinant anti-apoptotic protein [upper table]
# recombinant BFL-1/A1ΔC [3] = molecular target: recombinant BFL-1/A1ΔC (UniProt Q16548); test: as above
# recombinant BCL-XLΔC [4] = molecular target: recombinant BCL-XLΔC (UniProt Q07817); test: as above
# recombinant BCL-wΔC [5] = molecular target: recombinant BCL-wΔC (UniProt Q92843); test: as above
# [6] = molecular target: recombinant human MCL-1ΔNΔC (amino acids 172-320) (human) (UniProt Q07820); test: FPA, FITC-SAHB against MCL-1ΔNΔC
# [7] = molecular target: recombinant human MCL-1ΔNΔC (amino acids 172-320) (human) (UniProt Q07820); test: fluorescence polarization (FPA), FITC-SAHB with recombinant anti-apoptotic protein [lower table]
# recombinant BFL-1/A1ΔC [8] = molecular target: recombinant BFL-1/A1ΔC (UniProt Q16548); test: as above
# recombinant BCL-XLΔC [9] = molecular target: recombinant BCL-XLΔC (UniProt Q07817); test: as above
# recombinant BCL-wΔC [10] = molecular target: recombinant BCL-wΔC (UniProt Q92843); test: as above
# [11] = molecular target: recombinant human MCL-1ΔNΔC (amino acids 172-320) (human) (UniProt Q07820); test: fluorescence polarization (FPA), FITC-SAHB, dilution series of MCL-1ΔNΔC [top panel]
# recombinant BFL-1/A1ΔC [12] = molecular target: recombinant BFL-1/A1ΔC (UniProt Q16548); test: fluorescence polarization (FPA), FITC-SAHB with recombinant protein; axis Concentration [log(pM)] [left panel]
# [13] = molecular target: T1, recombinant human MCL-1ΔNΔC (amino acids 172-320) (human, UniProt Q07820 172-320); test: FPA, FITC-SAHB against MCL-1ΔNΔC
# T1 construct: also called rMCL-1; MCL-1NC
# Protocol: (§1) For direct binding experiments, dissociation constants (KD) were calculated by nonlinear regression analysis of dose-response curves using Prism software (Graphpad). For competition experiments, Ki values were determined by nonlinear regression analysis of dose-response curves using a one-site competition model.
# The native alpha-helical structure of BH3 domains was reinforced by incorporating non-natural amino acids containing olefin tethers at the (i, i+4) positions of the non-interacting face, followed by ruthenium catalyzed olefin metathesis to yield a panel of stapled BH3 domains (FIG. 7).
# [14] = molecular target: T1, recombinant human MCL-1ΔNΔC (amino …); test: fluorescence polarization (FPA), FITC-SAHB with recombinant anti-apoptotic protein [upper table]
# Protocol: as §1
# (§2) To measure the binding activity of SAHBs for MCL-1, fluorescence polarization binding assays were performed (FIG. 8). To generate a stable MCL-1 protein suitable for such binding studies (i.e., the published full-length and carboxy-terminus deleted forms of recombinant MCL-1 degrade rapidly, rendering it difficult to maintain a homogenous solution of pure MCL-1 protein), a recombinant form of MCL-1 (rMCL-1) was produced that lacked its amino- and carboxy-terminus, “MCL-1ΔNΔC”, but retained the critical BCL-2 homology domains and adjoining protein sequences that give rise to the BH3-binding cleft (SEQ ID NO: 72). The pGEX-4T vector was used to produce the GST-fusion protein of MCL-1ΔNΔC and purification was achieved by glutathione sepharose chromatography, affinity tag cleavage with thrombin at room temperature overnight, followed by size exclusion chromatography. […] Fluorescence polarization was measured on a BMG POLARstar Optima or Spectramax and dissociation constants determined by nonlinear regression analysis using Prism software 4.0 (Graphpad) (FIG. 8).
# [15] = molecular target: T1, recombinant human MCL-1ΔNΔC (amino …); test: fluorescence polarization (FPA), FITC-SAHB, dilution series of MCL-1ΔNΔC [middle panel]
# Protocol: as §1
# (§3) To measure the binding activity of SAHBs for MCL-1, fluorescence polarization binding assays were performed (FIG. 8). To generate a stable MCL-1 protein suitable for such binding studies (i.e., the published full-length and carboxy-terminus deleted forms of recombinant MCL-1 degrade rapidly, rendering it difficult to maintain a homogenous solution of pure MCL-1 protein), a recombinant form of MCL-1 (rMCL-1) was produced that lacked its amino- and carboxy-terminus, “MCL-1ΔNΔC”, but retained the critical BCL-2 homology domains and adjoining protein sequences that give rise to the BH3-binding cleft (SEQ ID NO: 72). The pGEX-4T vector was used to produce the GST-fusion protein of MCL-1ΔNΔC and purification was achieved by glutathione sepharose chromatography, affinity tag cleavage with thrombin at room temperature overnight, followed by size exclusion chromatography. Serial dilutions of MCL-1ΔNΔC in 50 mM Tris pH 8, 150 mM NaCl were incubated with a fixed concentration of FITC-derivatized SAHB (10-50 nM) until equilibrium was reached. Fluorescence polarization was measured on a BMG POLARstar Optima or Spectramax and dissociation constants determined by nonlinear regression analysis using Prism software 4.0 (Graphpad) (FIG. 8).
# [16] = molecular target: T1, recombinant human MCL-1ΔNΔC (amino …); test: fluorescence polarization (FPA), FITC-SAHB with recombinant anti-apoptotic protein [lower table]
# Protocol: as §1, §3
# [17] = molecular target: T1, recombinant human MCL-1ΔNΔC (amino …); test: fluorescence polarization (FPA), FITC-SAHB, dilution series of MCL-1ΔNΔC [top panel]
# Protocol: as §1, §2
# [18] = molecular target: T1, recombinant human MCL-1ΔNΔC (amino …); test: competition FPA, FITC-BAK SAHB and MCL-1ΔNΔC with MCL-1 SAHBs as competitors
# Protocol: (§4) Briefly, FITC-SAHB (50 nM) was added to serial dilutions of FPLC-purified recombinant protein in binding buffer (50 mM Tris, 100 mM NaCl, pH 8.0). […] Multiwell plates were incubated in the dark at room temperature until equilibrium was reached and fluorescence polarization (mP units) was measured by microplate reader (SpectraMax, Molecular Devices). For direct binding experiments, dissociation constants (KD) were calculated by nonlinear regression analysis of dose-response curves using Prism software (Graphpad). For competition experiments, Ki values were determined by nonlinear regression analysis of dose-response curves using a one-site competition model.
# (§5) FP (mP units) was measured at equilibrium by microplate reader (e.g., Spectramax) and Kᵢ values calculated by nonlinear regression analysis of dose-response curves using Prism software (Graphpad).
# [19] = molecular target: T1, recombinant human MCL-1ΔNΔC (amino …); test: fluorescence polarization (FPA), FITC-SAHB with recombinant protein; axis Concentration [log(pM)] [right panel]
# [20] = molecular target: T1, recombinant human MCL-1ΔNΔC (amino …); test: competition FPA: dilution series of acetylated MCL-1 SAHB against FITC-BAK SAHB on MCL-1ΔNΔC
# Protocol: as §4, §5
# [21] = molecular target: T1, recombinant human MCL-1ΔNΔC (amino …); test: FPA
# Protocol: as §1
# The alanine scan was supplemented with glutamate mutagenesis of alanine and glycine residues.
# Sequence of recombinant BFL-1/A1ΔC (Q16548 1-153, stated change not applied): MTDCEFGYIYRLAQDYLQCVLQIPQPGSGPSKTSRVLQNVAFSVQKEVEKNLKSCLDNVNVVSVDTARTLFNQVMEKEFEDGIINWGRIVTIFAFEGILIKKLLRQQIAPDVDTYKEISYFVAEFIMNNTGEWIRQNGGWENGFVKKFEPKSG
# Sequence of recombinant human MCL-1ΔNΔC (amino acids 172-320) (human) (Q07820 172-320 limits assumed, stated change not applied): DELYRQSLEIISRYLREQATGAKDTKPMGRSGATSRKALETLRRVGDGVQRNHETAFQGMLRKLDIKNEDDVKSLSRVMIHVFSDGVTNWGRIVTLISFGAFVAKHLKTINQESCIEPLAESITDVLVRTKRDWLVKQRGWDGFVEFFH
# T1 sequence (Q07820 172-320 limits assumed, stated change not applied): as above
# Sequence of recombinant BCL-wΔC (Q92843 1-164, stated change not applied): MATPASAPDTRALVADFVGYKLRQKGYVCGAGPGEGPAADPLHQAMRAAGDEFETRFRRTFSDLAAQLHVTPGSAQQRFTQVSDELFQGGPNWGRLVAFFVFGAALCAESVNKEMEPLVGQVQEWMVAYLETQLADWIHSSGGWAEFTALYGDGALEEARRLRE
# Sequence of recombinant BCL-XLΔC (Q07817 1-212, stated change not applied): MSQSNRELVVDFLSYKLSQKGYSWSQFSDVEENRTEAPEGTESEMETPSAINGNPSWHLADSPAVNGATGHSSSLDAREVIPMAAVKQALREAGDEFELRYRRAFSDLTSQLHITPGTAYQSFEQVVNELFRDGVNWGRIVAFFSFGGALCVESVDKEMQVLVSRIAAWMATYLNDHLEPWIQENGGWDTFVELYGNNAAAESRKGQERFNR
Molecule,Kd (recombinant BFL-1/A1ΔC [8]) [nM],Kd (recombinant BCL-XLΔC [9]) [nM],Kd (recombinant BCL-wΔC [10]) [nM],Kd [13] [nM],Kd [16] [nM],further results
NOXA SAHBB (from UniProt Q13794 19-43) (peptide),,,,,,Kd [1]: 110 nM; Kd [2]: 109 nM; Kd (recombinant BFL-1/A1ΔC [3]): > 1000 nM; Kd (recombinant BCL-XLΔC [4]): > 1000 nM; Kd (recombinant BCL-wΔC [5]): > 1000 nM
NOXA SAHBA (stapled NOXA BH3 helix) (from UniProt Q13794) (peptide),416,> 1000,> 1000,,,Kd [6]: < 50 nM; Kd [7]: 22 nM; Kd [11]: 22 nM
BIM SAHB (BIM SAHBA) (peptide),18,,2,,,EC50 (read off the curve) (recombinant BFL-1/A1ΔC [12]): 50 nM
B1,,,,< 50,,Kd [14]: 115 nM; Kd (recombinant BFL-1/A1ΔC [3]): > 1000 nM; Kd (recombinant BCL-XLΔC [4]): 316 nM; Kd (recombinant BCL-wΔC [5]): 416 nM; Kd [15]: 115 nM
B2,34,9,18,< 50,14,Kd [17]: 14 nM
B3,95,28,54,< 50,50,Kd [17]: 50 nM
B4,28,15,24,< 50,101,Kd [15]: 101 nM
B5,92,15,17,< 50,7,IC50 [18]: 270 nM; Kd [15]: 7 nM
B6,,,,,,EC50 (read off the curve) [19]: ~10 nM
B7,,,,< 50,,Ki [20]: 3100 nM
B8,,,,,,Kd [21]: 191 nM
